{"source": "patent US20070123465A1", "about": "(IPF PHARMACEUTICALS, published 2007)", "binders": {"B1": {"name": "VIR-574 (peptide)", "peptide": "LEAIPMSIPPEFLFGKPFVFKG", "modifications": "also: homodimer: C-termini linked to both amino groups of a C-terminal lysine core -K-G"}}, "key": {"[1]": {"molecular_target": "T1, fusion peptide of HIV gp41 (HIV-1 strain NL4-3) (HIV-1 strain NL4-3)", "assay": "cell-based or functional assay"}, "[2]": {"molecular_target": "T1, fusion peptide of HIV gp41 (HIV-1 …)", "assay": "cell-based or functional assay", "remark": "listed apart in the source"}}, "note": "Square brackets hold non-standard residues; d marks the D form. Ends that are not written are not given here. miniPEG = PEG spacer between peptide and cysteine; dTic = O=C(O)[C@H]1Cc2ccccc2CN1; NMeL = CN[C@@H](CC(C)C)C(=O)O", "data": [{"binder": "[NMeL]EKIPCSIPPEFLFGKPFVF (also: homodimer via intermolecular disulfide between Cys6 of the two chains)", "note": "[VIR-716]", "values": [{"measurement": "IC50 NL4-3 [nM], anti-HIV activity (infection of P4-CCR5 indicator cells, beta-galactosidase reporter)", "setting": "[1]", "value": 182, "unit": "nM"}]}, {"binder": "LEAIPMCIPPEFLFGKPFVF (also: homodimer via intermolecular disulfide between Cys7 of the two chains)", "note": "[VIR-577]", "values": [{"measurement": "IC50 NL4-3 [nM], anti-HIV activity (infection of P4-CCR5 indicator cells, beta-galactosidase reporter)", "setting": "[1]", "value": 3270, "unit": "nM"}]}, {"binder": "LEAIPCSIPPEFLFGKPFVF (not fully specified)", "note": "[VIRIP (virus inhibiting peptide)]", "values": [{"measurement": "IC50, inhibition of HIV infection, HIV strain NL4-3", "setting": "[2]", "value": 15000, "unit": "nM"}]}, {"binder": "LEAIPCGIP[dP]EV[dTic]FNKPFVF (also: homodimer via intermolecular disulfide Cys6-Cys6)", "note": "[VIR-706]", "values": [{"measurement": "IC50 NL4-3 [nM], anti-HIV activity (infection of P4-CCR5 indicator cells, beta-galactosidase reporter)", "setting": "[1]", "value": 74, "unit": "nM"}]}, {"binder": "B1", "values": [{"measurement": "IC50 NL4-3 [nM], anti-HIV activity (infection of P4-CCR5 indicator cells, beta-galactosidase reporter)", "setting": "[1]", "value": 3080, "unit": "nM"}]}, {"binder": "[NMeL]EDIPCSIPPEFLFGKPFVF (also: homodimer via intermolecular disulfide between Cys6 of the two chains)", "note": "[VIR-717]", "values": [{"measurement": "IC50 NL4-3 [nM], anti-HIV activity (infection of P4-CCR5 indicator cells, beta-galactosidase reporter)", "setting": "[1]", "value": 635, "unit": "nM"}]}, {"binder": "LEAIPMSIPPEFLFGKPFVF-{miniPEG-Cys-NH2} (also: homodimer disulfide bonded through the C-terminal cysteine)", "note": "[VIR-673]", "values": [{"measurement": "IC50 NL4-3 [nM], anti-HIV activity (infection of P4-CCR5 indicator cells, beta-galactosidase reporter)", "setting": "[1]", "value": 664, "unit": "nM"}]}, {"binder": "[NMeL]EAIPCSIPPEFLFGKPFVF (also: homodimer via intermolecular disulfide between Cys6 of the two chains)", "note": "[VIR-712]", "values": [{"measurement": "IC50 NL4-3 [nM], anti-HIV activity (infection of P4-CCR5 indicator cells, beta-galactosidase reporter)", "setting": "[1]", "value": 195, "unit": "nM"}]}, {"binder": "LEKIPCSIP[dP]EVAFNKPFVF (also: homodimer via intermolecular disulfide Cys6-Cys6)", "note": "[VIR-705]", "values": [{"measurement": "IC50 NL4-3 [nM], anti-HIV activity (infection of P4-CCR5 indicator cells, beta-galactosidase reporter)", "setting": "[1]", "value": 484, "unit": "nM"}]}]}
